Assay results taken from US20170115280.

Molecular target: reconstituted nascent HDL (rHDL) particle made with isolated human apoA-I (UniProt P02647)
Sequence (P02647 25-267): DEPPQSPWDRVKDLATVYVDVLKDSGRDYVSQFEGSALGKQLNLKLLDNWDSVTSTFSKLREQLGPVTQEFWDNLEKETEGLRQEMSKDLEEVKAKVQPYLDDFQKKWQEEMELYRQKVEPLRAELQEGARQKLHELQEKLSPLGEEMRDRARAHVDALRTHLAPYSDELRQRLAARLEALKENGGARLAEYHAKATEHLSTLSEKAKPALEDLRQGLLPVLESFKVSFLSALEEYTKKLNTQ

Substance	stability of arylesterase activity at 37° C. in the presence of HDL	rate of inactivation of PON1 (arylesterase activity) with EDTA and β-mercaptoethanol in the presence of rHDL
rPON1 Y293K mutant	the Y293K PON1 mutant shows the fastest rate of inactivation	–
rPON1 Y294K mutant	the rate of Y293K loss in activity is faster than either Y294K or WT PON1, and comparison of Y293K vs. Y294K shows significant difference as well	–
rPON1 pan K mutant (Leu9→Lys9, Tyr185→Lys185 and Tyr293→Lys293) with C-terminal His8 tag	–	no protective effects were observed when the pan K rPON1 mutant was incubated with either rHDL or detergent
recombinant paraoxonase 1 (PON1) variant G3C9, His-tagged (rPON1 WT)	when HDL is present, WT PON1 is quite stable at 37 °C	A very slow inactivation of WT rPON1 was observed in the presence of rHDL
